Data from the nanobody polyreactivity screen of Harvey et al. (2022).

Test: yeast display, Sf9 membrane polyspecificity reagent, FACS + sequencing; frameworks hold sequencing errors
Summary of the method: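 After 36–48 hours of galactose induction, yeast (Saccharomyces cerevisiae BJ5465) displaying a synthetic nanobody library were stained at 4 °C for 1 hour with 10% biotinylated, detergent-solubilized Sf9 membrane reagent. Streptavidin microbeads enriched the stained cells before FACS sorting into low and high (top ~1%) gates on anti-HA and streptavidin fluorescence. Each clone's polyreactivity label reflects its gate of origin.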

Row | Sequence | polyreactivity (PSR sort gate)
1 | QVQLVESGGGLVQAGGSLRLSCAASGRTFVVYAMGWYRQAPGKERELVASISSIGDITNYADSVKGRFTISRDNAKNTVYLQMNSLKPEYTAVYYCTAPIGGSYNTRRAAEYDYWGQGTQVTVSS | low polyreactivity
2 | QVQLVESGGGLVQAGGSLRLSCAASGRTFVVYAMGWYRQAPGKERELVAVISFTGDSTFYADSVKGRFTISRDNAKNTVYLQMNSLKPEDTAVYYCAADFRRVFSKYSYYLYFDFDYWGQGSQVTVSS | low polyreactivity
3 | QVQLVESGGGLVQAGGSLRLSCAASGRTFVYNAMGWYRQAPGKERELVAAIDWSGGSTYYADSVKGRFTISRDNAKNTVYLQMNSLKPEDTAVYYCAADYYYPSQMDYWGQGTQVTVSS | low polyreactivity
4 | QVQLVESGGGLVQAGGSLRLSCAASGRTFVYNAMGWYRQAPGKERELVAAISSDGASTYYADSVKGRFTISRDNAKNTVYLQMNSLKPEDTAVYYCAADLLVSWWLDYDYWGQGTQVTVSS | low polyreactivity
5 | QVQLVESGGGLVQAGGSLRLSCAASGRTFVYNAMGWYRQAPGKERELVAAISSGGGTNYADSVKGRFTISRDNAKNTVYLQMNSLKPEDTAVYYCAAGFDGSRHPGFDSWVQGTQVTVSS | low polyreactivity
6 | QVQLVESGGGLVQAGGSLRLSCAASGRTFVYNAMGWYRQAPGKERELVAAISSSGGSTRYADSVKGRFTISRDNAMNTVYLQMNSLKPEDTAVYYCATRTKAYLYTYYYWGQGTQVTVSS | high polyreactivity
7 | QVQLVESGGGLVQAGGSLRLSCAASGRTFVYYAMGWYRQAPGKEREFVAAISRSGGRTSYADSVKGRFTISRDNAKNTVYLQMNSLKPEDTAVYYCAAEKRTQPTSREYYWGQGTQVTVSS | high polyreactivity
8 | QVQLVESGGGLVQAGGSLRLSCAASGRTFVYYAMGWYRQAPGKERELVAAISRSGSTYYADSVKGRFTISRDNAKNTVYLQMNSLKPEDTAVYYCAARSVYTGRPYYYWGQGTQVTVSS | high polyreactivity
9 | QVQLVESGGGLVQAGGSLRLSCAASGRTFVYYAMGWYRQAPGKERELVAAITFSGGSTYYADSVKGRFTISRDNAKNTVYLQMNSLKPEDTAVYYCAAQYRYSYPLGDYWGQGTQVTVSS | low polyreactivity
10 | QVQLVESGGGLVQAGGSLRLSCAASGRTFWANTMGWYRQAPGKEREFVAAISGRDVSTYYADSVKGRFTISRDNAMNTVYLQMNSLKPEDTAVYYCAAGNLYYAEYDYWGQGTQVTVSS | low polyreactivity
11 | QVQLVESGGGLVQAGGSLRLSCAASGRTFWDYAMGWYRQAPGKERELVAAITGGDSTYADSVKGRFTISRDNAKNTVYLQMNSLKPEDTAVYYCNADSTWDPYVRWALLYEYWGQGTQVTVSS | low polyreactivity
12 | QVQLVESGGGLVQAGGSLRLSCAASGRTFWFNAMGWYRQAPGKEREFVAAISWRGGSTYYADSVKGRFTISRDNAKNTVYLQMNSLKPEDTAVYYCAVDGEYYSDVYLYYRWDDYWGQGTQVTVSS | low polyreactivity
13 | QVQLVESGGGLVQAGGSLRLSCAASGRTFWFYGMGWYRQAPGKEREFVARISASGGSTYYADSVKGRYTISRDNAKNTVYLQMNSLKPEDTAVYYCARDTPWRYYYWGQGTQVTVSS | high polyreactivity
14 | QVQLVESGGGLVQAGGSLRLSCAASGRTFWGNAMGWYRQAPGKDRELVAAITSGGSTYYADSVKGRFTISRDNAKNTVYLQMNSLKPEDTAVYYCATRRIYKWYRYYYWGQGTQVTVSS | high polyreactivity
15 | QVQLVESGGGLVQAGGSLRLSCAASGRTFWGYVKGWYRQAPGKERELVAAITSSTGRTYYADSVKGRFTISRDNAKNTVYLQMNSLKPEDTAVYYCAAGYNGYGLQYYYWGQGTQVTVSS | high polyreactivity
16 | QVQLVESGGGLVQAGGSLRLSCAASGRTFWKNTMGWYSQAPGKERELVAVISSGGVSTSYADSVTGRFTISRDKATNTVYLHMNSLKPEDTAVYYCAADGYYIGPYDYWGQGTQVTVSS | low polyreactivity
17 | QVQLVESGGGLVQAGGSLRLSCAASGRTFWKYAMGWYRQAPGKERELVAAITASGARTYYADSVKGRFTISRDNAKNTVYLQMNSLKPEDTAVYYCNAGSVSDRQMDYWGQGTEVTVSS | low polyreactivity
18 | QVQLVESGGGLVQAGGSLRLSCAASGRTFWKYAMGWYRQAPGKERELVAAITSSGGSTYYADSVKGRFTISRDNAKNTVYLQMNSLKPEDTAVYYCAAPGWGLGYNYWGQGTQVTVSS | low polyreactivity
19 | QVQLVESGGGLVQAGGSLRLSCAASGRTFWKYARGWYRQAPGKERELVAAISSSGGNTYYADSVKGRFTISRDNAKNTVYLQMNSLKPEDTAVYYCAARLPRGAYYYWGQGTQVTVSS | high polyreactivity
20 | QVQLVESGGGLVQAGGSLRLSCAASGRTFWKYVMGWYRQAPGKERELVAVISRPAGSTYYADSVKGRFTISRDNAKNTVYLQMNSLKPEDTAVYYCAKRPKNKPVLGDYDHWGQGTQVTVSS | low polyreactivity
21 | QVQLVESGGGLVQAGGSLRLSCAASGRTFWLYAMGWYRQAPGKERELVARITRRDGSTNYADSVKGRFTISRDNAKNTVYLQMNSLKPEDTAVYYCAAGRFRYPPGAYDYWGQGIQVTVSS | high polyreactivity
22 | QVQLVESGGGLVQAGGSLRLSCAASGRTFWMNAMGWYRQATGKERELVATISSSSGSTTYADSVKGRFTISRDNAKNTVYLQMNSLKPEDTAVYYCNVDDPFYSGVVEFDYWGQGTQVTVSS | low polyreactivity

Row | Sequence | polyreactivity (PSR sort gate)
23 | QVQLVESGGGLVQAGGSLRLSCAASGRTFWNYAMGWYRQAPGKERELVAVIRFSDGSTYYADSVKGRFTISRDNAKNTVYLQMNSLKPEDTAVYYCADIGPRRWGSGFDYWGQGTQVTVSS | low polyreactivity
24 | QVQLVESGGGLVQAGGSLRLSCAASGRTFWRNDMGWYRQAPGKERELVARISWSGGSTYYADSVKGRFTISRDNAKNTVYLQMNSLKPEDTAVYYCAKYYPGRSAFSDGNYWGQGTQVTVSS | low polyreactivity
25 | QVQLVESGGGLVQAGGSLRLSCAASGRTFWRYAMGWYRQAPGKERELVARISSGGSTYYADSVKGRFTISRDNAKNTVYLQMNSLKPEDTAVYYCAVLSRHRRVPWYRYNYWGQGTQVTVSS | low polyreactivity
26 | QVQLVESGGGLVQAGGSLRLSCAASGRTFWTNAMGWYRQAPGKERELVAAISYRAGSTYYADSVKGRFTISRDNAKNTVYLQMNSLKPEDTAVYYCATRAVYYYAGFDYWGQGTQVTVSS | high polyreactivity
27 | QVQLVESGGGLVQAGGSLRLSCAASGRTFWVYAMGWYRQAPGKERELVAAIRRGGITNYADSVKGRFTISRDNAKNTVYLQMNSLKPEDTAVYYCAALGLWFLQFDYWGQGTQVTVSS | low polyreactivity
28 | QVQLVESGGGLVQAGGSLRLSCAASGRTFWWNAMGWYRQAPGKERELVASISSGGSTNYADSVKGRFTISRDNAKKTVYLQMNSLKPEDTAVYYCARGYRWRGTVSRWSRYYQAHDYWGQGTQVTVSS | low polyreactivity
29 | QVQLVESGGGLVQAGGSLRLSCAASGRTFWYNALGWYRQAPGKERELVAAISWSGGTTYYADSVKGRFTISRDNAKNTVYLQMNSLKPEDTAVYYCNAKYRGLAKYDYWGQGTQVTVSS | high polyreactivity
30 | QVQLVESGGGLVQAGGSLRLSCAASGRTFWYNAMGWYRQAPGKERELVAAISSTGGRTYYADSVKGRFTISRDNAKNTVYLQMNSLKPEDTAVYYCAARQLSSHYDYWGQGTQVTVSS | low polyreactivity
31 | QVQLVESGGGLVQAGGSLRLSCAASGRTFWYNTMGWYRQAPGKERELVAAISTGGSTNYADSVKGRFTISRDNAKNTVYLQMNSLIPEDTAVYYCAALIYYWSGRPRFDQARDYDYWGQGTQVTVSS | low polyreactivity
32 | QVQLVESGGGLVQAGGSLRLSCAASGRTFWYYAMGWYRPAPGKERELVASISLSGSRTNYADSVKGRFTIARDNAKNTVYLQINRLKPEDTAVYYCAADNFRQFGEYDYLGQGTQVTVSS | low polyreactivity
33 | QVQLVESGGGLVQAGGSLRLSCAASGRTFWYYAMGWYRQAPGKEREFVAAISWSGGSTYYADSVKGRFTISRDNAKNTVYFQMNSLKPEDTAVYYCNAGNYRDKSYYWGQGTQVTVSS | low polyreactivity
34 | QVQLVESGGGLVQAGGSLRLSCAASGRTFWYYAMGWYRQAPGKERELVAAISRNGGSTYYEDSVKGRFTISRDNAKNTVYLQMNSLKPEDTAVYYCAADGWYTRKYDYWGQGTQVTVSS | high polyreactivity
35 | QVQLVESGGGLVQAGGSLRLSCAASGRTFWYYAMGWYRQAPGKERELVAAISTTGSSTYYADSVKGRFTISRDNAKNTVYLQMNSLKPEDTAVYYCAADSGAQYKYLWGYDYWGQGTQVTVSS | low polyreactivity
36 | QVQLVESGGGLVQAGGSLRLSCAASGRTFWYYAMGWYRQAPGKERELVAAITYRGTRTYADSVKGRFTISRDNAKNTVYLQMNSQKPEDTPVYYCAKDVGYRYSRTMDYWGQGTQVTVSS | high polyreactivity
37 | QVQLVESGGGLVQAGGSLRLSCAASGRTFWYYAMGWYRQAPGKERELVAGITYGDGSTYYADSVKGRFTISRDNAKNTEYLQMNSLKPEDTAVYYCAVDLRSYWFRYGFDYWGQGTQVTVSS | low polyreactivity
38 | QVQLVESGGGLVQAGGSLRLSCAASGRTFWYYDMGWYRQAPGKERELVATINNVGSTHYADSVKGRFTISRDNAKNTVYLQMNSLKPEDTAVYYCARASYGKMDYWGQGTQVTVSS | high polyreactivity
39 | QVQLVESGGGLVQAGGSLRLSCAASGRTFWYYTMGWYIQAPGKERELVASITYRGGSTYYADSVKGRFTISRDNAKNTVYLQMNSLKPEDTAVYYCNARYKRYSYDYWGQGTQVTVSS | high polyreactivity
40 | QVQLVESGGGLVQAGGSLRLSCAASGRTFWYYTMGWYRQAPGKERELVAAISSGGRTNYADSVKGRFTISRDNAKNTVYLQMNSLKPEDTAVYYCATSRYYKYVERDYWGQGTQVTVSS | high polyreactivity
41 | QVQLVESGGGLVQAGGSLRLSCAASGRTFWYYTMGWYRQAPGKERELVASITYRGGSTYYADSVKGRFTISRDNAKNTVYLQMNSLKPEDTAVYFCNARYKRYSYDYWGHGTQVTVSS | high polyreactivity
42 | QVQLVESGGGLVQAGGSLRLSCAASGRTFYANAMGWYRQAPGKERELVAAISTGGDGTYYADSVKGRFTISRDNAKKTVYLQMNSLKPEDTAVYYCAVRHRASGILYDYWGQGTQVTVSS | low polyreactivity
43 | QVQLVESGGGLVQAGGSLRLSCAASGRTFYANAMGWYRQAPGKERELVAAISWGGGSTYYADSVKGRFTISRDNAKNTVYLQMNSLKPEDTAVYYCNADLGRATFYQRVFIERGGYWGQGTQVTVSS | low polyreactivity
